Measurements taken from patent US20150297748A1 (Daiichi Sankyo, published 2015).

T1: human B7-H3 variant 1 (human, UniProt Q5ZPR3 27-534)
T1 sequence: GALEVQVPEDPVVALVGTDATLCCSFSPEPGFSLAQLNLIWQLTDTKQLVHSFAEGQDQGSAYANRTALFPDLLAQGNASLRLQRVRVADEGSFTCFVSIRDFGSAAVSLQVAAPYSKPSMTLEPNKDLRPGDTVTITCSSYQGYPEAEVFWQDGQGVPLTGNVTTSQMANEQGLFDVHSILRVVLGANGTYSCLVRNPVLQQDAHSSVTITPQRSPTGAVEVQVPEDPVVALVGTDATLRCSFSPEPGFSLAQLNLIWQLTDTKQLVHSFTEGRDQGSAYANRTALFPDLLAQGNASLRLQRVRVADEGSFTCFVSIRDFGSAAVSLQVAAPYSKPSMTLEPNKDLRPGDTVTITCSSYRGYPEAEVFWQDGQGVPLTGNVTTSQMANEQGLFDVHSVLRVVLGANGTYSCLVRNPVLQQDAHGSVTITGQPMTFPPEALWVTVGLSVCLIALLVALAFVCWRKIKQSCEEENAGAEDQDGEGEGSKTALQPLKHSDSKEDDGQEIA

B1: Antibody-drug conjugate (44) (antibody, human IgG1, kappa, V domains shown)
VH: QVQLVQSGAEVKKPGSSVKVSCKASGYTFTNYVMHWVRQAPGQGLEWMGYINPYNDDVKYNEKFKGRVTITADESTSTAYMELSSLRSEDTAVYYCARWGYYGSPLYYFDYWGQGTLVTVSS
VL: EIVLTQSPATLSLSPGERATLSCRASSRLIYMHWYQQKPGQAPRPLIYATSNLASGIPARFSGSGSGTDFTLTISSLEPEDFAVYYCQQWNSNPPTFGQGTKVEIKR
modifications: drug-linker 6-maleimidohexanoyl-GGFG-NH-CH2CH2-O-CH2-C(=O)-exatecan (compound of Process 3 of Example 43) on cysteines of the reduced hinge disulfide bonds; average 6.6 per antibody molecule; positions not given
B2: Antibody-drug conjugate (16) (antibody, human IgG1, kappa, V domains shown)
VH: QVQLVQSGAEVKKPGSSVKVSCKASGYTFTNYVMHWVRQAPGQGLEWMGYINPYNDDVKYNEKFKGRVTITADESTSTAYMELSSLRSEDTAVYYCARWGYYGSPLYYFDYWGQGTLVTVSS
VL: EIVLTQSPATLSLSPGERATLSCRASSRLIYMHWYQQKPGQAPRPLIYATSNLASGIPARFSGSGSGTDFTLTISSLEPEDFAVYYCQQWNSNPPTFGQGTKVEIKR
modifications: drug-linker 3-maleimidopropanoyl-NH-(CH2CH2O)2-CH2CH2-C(=O)-GGFG-NH-(CH2)3-C(=O)-exatecan (compound of Process 1 of Example 14) on cysteines of the reduced hinge disulfide bonds; average 6.5 per antibody molecule; positions not given
B3: Antibody-drug conjugate (46) (antibody, human IgG1, kappa, V domains shown)
VH: QVQLVQSGAEVKKPGSSVKVSCKASGYTFTNYVMHWVRQAPGQGLEWMGYINPYNDDVKYNEKFKGRVTITADESTSTAYMELSSLRSEDTAVYYCARWGYYGSPLYYFDYWGQGTLVTVSS
VL: EIVLTQSPATLSLSPGERATLSCRASSRLIYMHWYQQKPGQAPRPLIYATSNLASGIPARFSGSGSGTDFTLTISSLEPEDFAVYYCQQWNSNPPTFGQGTKVEIKR
modifications: drug-linker 6-maleimidohexanoyl-GGFG-NH-CH2CH2-O-CH2-C(=O)-exatecan (compound of Process 3 of Example 43) on cysteines of the reduced hinge disulfide bonds; average 5.2 per antibody molecule; positions not given
B4: Antibody-drug conjugate (52) (antibody, human IgG1, kappa, V domains shown)
VH: QVQLVQSGAEVKKPGSSVKVSCKASGYTFTNYVMHWVRQAPGQGLEWMGYINPYNDDVKYNEKFKGRVTITADESTSTAYMELSSLRSEDTAVYYCARWGYYGSPLYYFDYWGQGTLVTVSS
VL: EIVLTQSPATLSLSPGERATLSCRASSRLIYMHWYQQKPGQAPRPLIYATSNLASGIPARFSGSGSGTDFTLTISSLEPEDFAVYYCQQWNSNPPTFGQGTKVEIKR
modifications: drug-linker 6-maleimidohexanoyl-GGFG-NH-(CH2)5-C(=O)-exatecan (compound of Process 5 of Example 54) on cysteines of the reduced hinge disulfide bonds; average 3.1 per antibody molecule; positions not given
B5: Antibody-drug conjugate (45) (antibody, human IgG1, kappa, V domains shown)
VH: QVQLVQSGAEVKKPGSSVKVSCKASGYTFTNYVMHWVRQAPGQGLEWMGYINPYNDDVKYNEKFKGRVTITADESTSTAYMELSSLRSEDTAVYYCARWGYYGSPLYYFDYWGQGTLVTVSS
VL: EIVLTQSPATLSLSPGERATLSCRASSRLIYMHWYQQKPGQAPRPLIYATSNLASGIPARFSGSGSGTDFTLTISSLEPEDFAVYYCQQWNSNPPTFGQGTKVEIKR
modifications: drug-linker 6-maleimidohexanoyl-GGFG-NH-CH2CH2-O-CH2-C(=O)-exatecan (compound of Process 3 of Example 43) on cysteines of the reduced hinge disulfide bonds; average 3.7 per antibody molecule; positions not given
B6: Antibody-drug conjugate (32) (antibody, human IgG1, kappa, V domains shown)
VH: QVQLVQSGAEVKKPGSSVKVSCKASGYTFTNYVMHWVRQAPGQGLEWMGYINPYNDDVKYNEKFKGRVTITADESTSTAYMELSSLRSEDTAVYYCARWGYYGSPLYYFDYWGQGTLVTVSS
VL: EIVLTQSPATLSLSPGERATLSCRASSRLIYMHWYQQKPGQAPRPLIYATSNLASGIPARFSGSGSGTDFTLTISSLEPEDFAVYYCQQWNSNPPTFGQGTKVEIKR
modifications: drug-linker from N-(bromoacetyl)-beta-alanyl-GGFG-NH-(CH2)3-C(=O)-exatecan (compound of Process 3 of Example 30) on cysteines of the reduced hinge disulfide bonds; average 6.0 per antibody molecule; positions not given
B7: Antibody-drug conjugate (54) (antibody, human IgG1, kappa, V domains shown)
VH: QVQLVQSGAEVKKPGSSVKVSCKASGYTFTNYVMHWVRQAPGQGLEWMGYINPYNDDVKYNEKFKGRVTITADESTSTAYMELSSLRSEDTAVYYCARWGYYGSPLYYFDYWGQGTLVTVSS
VL: EIVLTQSPATLSLSPGERATLSCRASSRLIYMHWYQQKPGQAPRPLIYATSNLASGIPARFSGSGSGTDFTLTISSLEPEDFAVYYCQQWNSNPPTFGQGTKVEIKR
modifications: drug-linker 6-maleimidohexanoyl-GGFG-NH-(CH2)5-C(=O)-exatecan (compound of Process 5 of Example 54) on cysteines of the reduced hinge disulfide bonds; average 3.0 per antibody molecule; positions not given
B8: Antibody-drug conjugate (21) (antibody, human IgG1, kappa, V domains shown)
VH: QVQLVQSGAEVKKPGSSVKVSCKASGYTFTNYVMHWVRQAPGQGLEWMGYINPYNDDVKYNEKFKGRVTITADESTSTAYMELSSLRSEDTAVYYCARWGYYGSPLYYFDYWGQGTLVTVSS
VL: EIVLTQSPATLSLSPGERATLSCRASSRLIYMHWYQQKPGQAPRPLIYATSNLASGIPARFSGSGSGTDFTLTISSLEPEDFAVYYCQQWNSNPPTFGQGTKVEIKR
modifications: drug-linker 3-maleimidopropanoyl-NH-(CH2CH2O)2-CH2CH2-C(=O)-GGFG-NH-(CH2)3-C(=O)-exatecan (compound of Process 1 of Example 14) on cysteines of the reduced hinge disulfide bonds; average 5.5 per antibody molecule; positions not given
B9: Antibody-drug conjugate (8) (antibody, V domains shown)
VH: EVQLVQSGAEVKKPGSSVKVSCKASGYTITDSNIHWVRQAPGQSLEWIGYIYPYNGGTDYNQKFKNRATLTVDNPTNTAYMELSSLRSEDTAFYYCVNGNPWLAYWGQGTLVTVSS
VL: DIQLTQSPSTLSASVGDRVTITCRASQSLDNYGIRFLTWFQQKPGKAPKLLMYAASNQGSGVPSRFSGSGSGTEFTLTISSLQPDDFATYYCQQTKEVPWSFGQGTKVEVKR
modifications: drug-linker 6-maleimidohexanoyl-GGFG-NH-(CH2)3-C(=O)-exatecan (compound of Process 3 of Example 2) on cysteines of the reduced hinge disulfide bonds; average 3.4 per antibody molecule; positions not given

target: T1, human B7-H3 variant 1; experiment: cell-based or functional assay

For B1, which “IC50, cytotoxic activity against the CEM_V1-3.1-2 cells” value (shortened to “IC50 … against the CEM_V1-3.1-2 cells”) is on record?
The value was under 0.1 nM.

For B2, which “IC50 … against the CEM_V1-3.1-2 cells” value is on record?
Its value is under 0.1 nM.

Which “IC50 … against the CEM_V1-3.1-2 cells” value does the source give for B3 here?
The value was under 0.1 nM.

Which “IC50 … against the CEM_V1-3.1-2 cells” value does the source give for B4 here?
The value was under 0.1 nM.

B5 was tested. Which “IC50 … against the CEM_V1-3.1-2 cells” value did it give?
The value was under 0.1 nM.

For B6, which “IC50 … against the CEM_V1-3.1-2 cells” value is on record?
Its value is under 0.1 nM.

How did the “IC50 … against the CEM_V1-3.1-2 cells” value turn out when B7 was run?
Its value is under 0.1 nM.

With B8 as the binder, how does the “IC50 … against the CEM_V1-3.1-2 cells” value read?
Its value is under 0.1 nM.

target: CD33 (UniProt P20138 18-364, limits assumed); experiment: cell-based or functional assay
Sequence (P20138 18-364 limits assumed): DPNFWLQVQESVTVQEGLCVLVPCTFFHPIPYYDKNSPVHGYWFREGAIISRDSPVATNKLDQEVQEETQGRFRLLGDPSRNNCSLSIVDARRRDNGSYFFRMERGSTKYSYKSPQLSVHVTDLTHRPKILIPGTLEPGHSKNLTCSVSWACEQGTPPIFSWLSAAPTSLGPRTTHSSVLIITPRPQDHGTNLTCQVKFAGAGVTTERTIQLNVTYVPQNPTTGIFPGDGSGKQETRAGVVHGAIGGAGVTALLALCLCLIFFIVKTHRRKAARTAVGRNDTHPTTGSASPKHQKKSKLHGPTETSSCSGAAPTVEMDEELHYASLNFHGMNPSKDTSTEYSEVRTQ

B9 was tested. Which “IC50, cytotoxic activity against the HL-60 cells” value did it give?
The value was under 0.1 nM.
